Laboratory results from patent US7541169B2, “Sulfotransferase sequence variants” (Mayo Foundation for Medical Education and Research, priority 2001, dated 2009).
Changes are numbered by the printed parent chain. Values belong to the molecule of their own block, whether it stands above or below them.

Test system: SULT1C1
Experiment: SULT1C1 enzyme activity assay: sulfate conjugation of 4-nitrophenol with 35S-PAPS, COS-1 cytosol of recombinant allozymes
Assay type: biochemical, human
Settings: for Km: apparent Km for PAPS, in the presence of 10 mM 4-NP, six PAPS concentrations 0.0625 μM to 2 μM; for % WT activity: recombinant allozyme in COS-1 cytosol, 10 mM 4-NP, 0.4 μM 35S-PAPS, pH 7.4, percentage of wild type SULT1C1 enzyme activity; for activity relative to the reference (wild type) SULT1C1: statement in words
Protocol: In some embodiments, activity of SULT1C1 polypeptides is altered relative to the reference SULT1C1. […] Other allozymes can have increased activity relative to the reference SULT1C1. Activity of SULT1C1 polypeptides can be assessed in vitro using a sulfate acceptor substrate such as 4-nitrophenol (4-NP, Sigma Chemical Co., St. Louis, Mo.) and a donor sulfate molecule such as PAPS. In general, recombinant SULT1C1 polypeptides can be incubated at 37° C. with 10 mM of sulfate acceptor substrate in a potassium phosphate buffer (5 mM, pH 7.4) and 0.4 μM labeled PAPS (e.g., ^35S-PAPS from New England Nuclear Life Science Products, Inc., Boston Mass.). Reactions can be stopped by precipitating PAPS and SULT1C1 polypeptide (e.g., with barium hydroxide, barium acetate, and zinc sulfate). After centrifugation of the reaction, radioactivity in the supernatant is assessed. SULT1C1 activity is expressed as nmoles of sulfate conjugated product formed per hour of incubation. See, Campbell, N. R. C. et al., Biochem. Pharmacol., 36:1435-1446 (1987).
Other biochemical properties of allozymes, such as apparent Km values, also can be altered relative to the reference SULT1C1. Apparent Km values can be calculated, for example, by using the method of Wilkinson with a computer program written by Cleland. Wilkinson, Biochem. J., 80:324-332 (1961); and Cleland, Nature, 198:463-365 (1963). As described herein, the apparent Km values for PAPS vary 7-fold among the allozymes tested (Asp60Ala, Arg73Gln, Phe193Leu, Asp200Val, Thr239Ala, and Ser255Ala).
COS-1 Cell Expression: Nine different SULT1C1 expression constructs were made using the p91023(B) expression vector. See, Wong et al., Science (1985) 228:810-815, for a description of the p91023(B) vector. Eight of the constructs were designed to express variant SULT1C1 polypeptides, while the remaining construct was designed to express a wild type SULT1C1. All SULT1C1 cDNA sequences used to create the expression constructs were created by site directed mutagenesis using the method described by Ho et al., Gene (1989) 77(l):51-9. Each SULT1C1 cDNA was amplified by PCR and subcloned into the EcoRI restriction site of the eukaryotic expression vector p91023(B). After subcloning, all inserts were sequenced to assure that no spurious nucleotide point mutations had been introduced during the PCR amplifications. […] As a control, a transfection was also performed with “empty” p91023(B), i.e., vector lacking an insert, to make it possible to correct for endogenous COS-1 cell SULT activity. The control plasmid pSV-β-galactosidase (Promega, Madison, Wis.) was cotransfected with each SULT1C1 construct to make it possible to correct for transfection efficiency. Two independent transfections, each consisting of three separate plates, were performed with each of the expression constructs. After 48 hours in culture, the transfected cells were harvested and high speed supernatant (HSS) cytosol preparations were prepared as described by Wood, T. C. et al., Biochem. Biophys. Res. Commun., 198:1119-1127 (1994). Aliquots of these cytosol preparations were stored at −80° C. prior to assay.
Enzyme Assays: β-galactosidase activity in each of the COS-1 HSS preparations was measured with the β-galactosidase Enzyme Assay System (Promega, Madison, Wis.). SULT1C1 enzyme activity was measured with an assay that involves sulfate conjugation of a sulfate acceptor substrate, 4-nitrophenol (4-NP), in the presence of [^35S]-3′-phosphoadenosine-5′-phosphosulfate (PAPS), the sulfate donor for the reaction. See, Campbell, N. R. C. et al., Biochem. Pharmacol., 36:1435-1446 (1987). The HSS preparations of recombinant SULT1C1 variant proteins described above were used for the activity studies without any further purification. The protein concentration of each recombinant protein preparation was determined by the dye-binding method of Bradford with bovine serum albumin (BSA) as a standard. […]

- % WT activity: 13.9 ± 0.3%
- activity relative to the reference (wild type) SULT1C1: reduced activity
B1: Asp60Ala: SULT1C1 polypeptide having an alanine at amino acid residue 60 in place of aspartic acid (protein)
chain: MALTSDLGKQIKLKEVEGTLLQPATVDNWSQIQSFEAKPDDLLICTYPKAGTTWIQEIVAMIEQNGDVEKCQRAIIQHRHPFIEWARPPQPSGVEKAKAMPSPRILKTHLSTQLLPPSFWENNCKFLYVARNAKDCMVSYYHFQRMNHMLPDPGTWEEYFETFINGKVVWGSWFDHVKGWWEMKDRHQILFLFYEDIKRDPKHEIRKVMQFMGKKVDETVLDKIVQETSFEKMKENPMTNRSTVSKSILDQSISSFMRKGTVGDWKNHFTVAQNERFDEIYRRKMEGTSINFCMEL
- Km: 4 ± 0.47 µM

- % WT activity: 100%
B2: wild type: reference human SULT1C1 polypeptide (SEQ ID NO:2, GenBank U66036), recombinantly expressed in COS-1 cells (protein, listed as Homo sapiens)
chain: B1 chain with A60D
- Km: 0.77 ± 0.04 µM

- % WT activity: 14.5 ± 1.9%
- activity relative to the reference (wild type) SULT1C1: reduced activity
B3: Arg73Gln: SULT1C1 polypeptide having a glutamine at amino acid residue 73 in place of an arginine (protein)
chain: B1 chain with A60D, R73Q
- Km: 0.57 ± 0.15 µM

- % WT activity: 49.3 ± 2.8%
- activity relative to the reference (wild type) SULT1C1: reduced activity
B4: Asp200Val/ Thr239Ala: double variant SULT1C1 polypeptide with a valine at amino acid 200 and an alanine at amino acid 239 (protein)
chain: B1 chain with A60D, D200V, T239A
- Km: 1.82 ± 0.14 µM

- % WT activity: 48.1 ± 4.2%
- activity relative to the reference (wild type) SULT1C1: reduced activity
B5: Asp200Val: SULT1C1 polypeptide having a valine at amino acid 200 in place of an aspartic acid (protein)
chain: B1 chain with A60D, D200V
- Km: 1.2 ± 0.12 µM

- % WT activity: 98.9 ± 5.9%
- activity relative to the reference (wild type) SULT1C1: comparable to the reference SULT1C1
B6: Ser255Ala: SULT1C1 polypeptide having an alanine at amino acid 255 in place of a serine (protein)
chain: B1 chain with A60D, S255A
- Km: 0.56 ± 0.06 µM

- % WT activity: 0%
- activity relative to the reference (wild type) SULT1C1: reduced activity
B7: Ser111Phe: SULT1C1 polypeptide having a phenylalanine at amino acid 111 in place of a serine (protein)
chain: B1 chain with A60D, S111F

- % WT activity: 39.3 ± 1.4%
- activity relative to the reference (wild type) SULT1C1: reduced activity
B8: Phe193Leu: SULT1C1 polypeptide having a leucine residue at amino acid 193 in place of a phenylalanine (protein)
chain: B1 chain with A60D, F193L
- Km: 2.95 ± 0.27 µM

- % WT activity: 52.6 ± 1.7%
- activity relative to the reference (wild type) SULT1C1: reduced activity
B9: Thr239Ala: SULT1C1 polypeptide having an alanine at amino acid 239 in place of a threonine (protein)
chain: B1 chain with A60D, T239A
- Km: 1.14 ± 0.11 µM
